The numbers were not newly measured in PMC3263801, which cites them from elsewhere.

The target in this data set is hDM2 (Homo sapiens) (UniProt Q00987).
Chain of hDM2 (Homo sapiens) (Q00987 whole entry): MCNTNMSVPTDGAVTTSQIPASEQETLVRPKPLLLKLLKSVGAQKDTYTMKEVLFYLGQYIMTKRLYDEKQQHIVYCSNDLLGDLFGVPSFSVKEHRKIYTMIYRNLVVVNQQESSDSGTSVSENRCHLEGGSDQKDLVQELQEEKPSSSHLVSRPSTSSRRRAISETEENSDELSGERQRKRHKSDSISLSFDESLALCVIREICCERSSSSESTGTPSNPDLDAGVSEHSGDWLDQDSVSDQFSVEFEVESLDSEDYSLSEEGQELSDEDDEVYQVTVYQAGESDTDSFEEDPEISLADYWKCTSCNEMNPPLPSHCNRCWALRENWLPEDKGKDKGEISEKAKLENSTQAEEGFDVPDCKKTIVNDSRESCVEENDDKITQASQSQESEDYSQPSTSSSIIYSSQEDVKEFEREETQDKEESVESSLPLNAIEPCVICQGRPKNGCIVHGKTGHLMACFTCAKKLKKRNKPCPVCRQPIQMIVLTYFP

As a reminder, the Kd is the free concentration of one partner at which half of the binding sites on the other are occupied at equilibrium, for simple one-to-one binding. Consider “stapled p53 peptide (from UniProt P04637)”, for which the dissociation constant Kd is 0.9 nM.
